Data on six molecules can be found in PMC5799168 (Scientific Reports, 2018).

The series has as its system wild-type and mutant Ndi1. Nature of the series: Kinetic parameters of the oxidoreductase activity of wild-type and mutant Ndi1 for ubiquinone-1. Type of series: biochemical, Saccharomyces cerevisiae. Particulars: for Km: apparent Km for ubiquinone-1 (2.4–60 µM); for Km / Vmax: NADH fixed at 100 µM; for increase of Km value for ubiquinone-1 in comparison to wild-type enzyme / Vmax, % of the wild-type activity: relative to wild-type Ndi1; for Vmax: ubiquinone-1 as substrate (2.4–60 µM). The method, then:
This unique structure appears to be related to the competitive nature of the inhibition of Ndi1 oxidoreductase activity by stigmatellin. It is therefore hypothesized that L444, I459, R460, and S461, which interact with stigmatellin at the STG-1a site, are also involved in the binding of the substrate ubiquinone (Fig. 5). This hypothesis was evaluated by examining the effects of mutations of the proximal L444 and I459 on the kinetics of the enzymatic reaction of Ndi1. The effect of the mutation of S484, which specifically interacts with stigmatellin at the STG-1b site, was examined as a control. Furthermore, the effects of mutations of W63, P92, A393, Q394, H397, L447, Y482, M485, and L487, which interact with the aromatic head group of stigmatellin at the STG-1a and STG-1b sites, were also examined. Moreover, to investigate the functional role of the STG-2 site in ubiquinone binding, a mutation was also introduced to R479.
NADH-ubiquinone oxidoreductase activity was measured as described previously. In brief, the reaction was started by adding 100 µM NADH to the enzyme mixture containing 10 ng/mL Ndi1, 50 mM sodium phosphate (pH 6.0) and 1 mM EDTA, which was pre-incubated with various concentrations of ubiquinone-1 for 1 min. The decrease in 340 nm absorbance was measured as an indication of the oxidation of NADH (ε = 6.22 mM^−1 cm^−1) with a Shimadzu UV2000 spectrophotometer (Kyoto, Japan). The enzymatic activity obtained with 100 µM NADH and 60 µM ubiquinone-1 in the absence of any inhibitors (100% activity) catalyzed the oxidation of 1,890 μmol NADH/min/mg Ndi1. The concentrations of inhibitors required to obtain the half-maximal inhibition (IC50) were estimated by non-linear regression dose-response curves. The inhibition mode of each inhibitor for ubiquinone-1 was determined by the intersection point in double-reciprocal plots (Fig. 2B–E). To objectively evaluate the inhibition mode, the data of the inhibition kinetics were fitted to the Eq. (1) of mixed model inhibition in the Prism6 software program (GraphPad Software, Inc., La Jolla, CA).1 V=Vmax[S]/[S](1+[I]/αKi)+Km(1+[I]/Ki) […]
To determine the kinetic parameters of wild-type and mutant enzymes for ubiquinone-1, the NADH oxidation rates were measured in a fixed concentration of NADH (100 µM) and different concentrations of ubiquinone-1 (2.4–60 µM). Apparent Km and Vmax values were obtained by fitting a data set of initial velocity versus substrate concentration to the Michaelis-Menten model equation in the Prism6 software program.
Site-directed mutagenesis. The amino acid replacements of Ndi1 were basically performed with PrimeSTAR mutagenesis basal kit (Takara, Japan) using pET16b(NDI1-m) (2) and a synthetic oligonucleotide primer set (Table S2). The mutagenesis of H397 was performed with a QuikChange II XL site-directed mutagenesis kit (Stratagene, CA). Each mutation was confirmed through DNA sequencing (DNA sequencing service, Eurofins). The purification procedure of wild-type and mutant enzymes, used for the determination of the kinetic parameters (Table 2), was basically the same as the above procedure, without the replacement of the detergent from Triton X -100 with DDM. After washing the enzyme with buffer A containing 0.1% Triton X-100 and 15 mM histidine, 0.02% Triton X-100 was added to all buffer as a substitute for DDM. With the exception of 5 mutants containing L444D, I459A, […]
yield of the wild-type enzyme. […]

B1: L444D: recombinant Ndi1 mutant L444D (protein, UniProt P32340 27-513, looked up, variant L444D)
Rotenone-insensitive …: STGVENSGAGPTSFKTMKVIDPQHSDKPNVLILGSGWGAISFLKHIDTKKYNVSIISPRSYFLFTPLLPSAPVGTVDEKSIIEPIVNFALKKKGNVTYYEAEATSINPDRNTVTIKSLSAVSQLYQPENHLGLHQAEPAEIKYDYLISAVGAEPNTFGIPGVTDYGHFLKEIPNSLEIRRTFAANLEKANLLPKGDPERRRLLSIVVVGGGPTGVEAAGELQDYVHQDLRKFLPALAEEVQIHLVEALPIVLNMFEKKLSSYAQSHLENTSIKVHLRTAVAKVEEKQLLAKTKHEDGKITEETIPYGTLIWATGNKARPVITDLFKKIPEQNSSKRGLAVNDFLQVKGSNNIFAIGDNAFAGLPPTAQVAHQEAEYLAKNFDKMAQIPNFQKNLSSRKDKIDLLFEENNFKPFKYNDDGALAYLGSERAIATIRSGKRTFYTGGGLMTFYLWRILYLSMILSARSRLKVFFDWIKLAFFKRDFFKGL
The Km is the substrate concentration at which the rate is half of its maximum. Usually Vmax stands for the top rate of the reaction or transport when substrate is in excess. Regarding B1, the Michaelis constant (Km) is 37.6 ± 3.9 µM, the “increase of Km value for ubiquinone-1 in comparison to wild-type enzyme” value (“increase of Km value” below) came to 1.7 fold and the Vmax is 447 ± 6.8 µmol/min/mg.

B2: I459W: recombinant Ndi1 mutant I459W (protein, UniProt P32340 27-513, looked up, variant I459W)
Rotenone-insensitive …: STGVENSGAGPTSFKTMKVIDPQHSDKPNVLILGSGWGAISFLKHIDTKKYNVSIISPRSYFLFTPLLPSAPVGTVDEKSIIEPIVNFALKKKGNVTYYEAEATSINPDRNTVTIKSLSAVSQLYQPENHLGLHQAEPAEIKYDYLISAVGAEPNTFGIPGVTDYGHFLKEIPNSLEIRRTFAANLEKANLLPKGDPERRRLLSIVVVGGGPTGVEAAGELQDYVHQDLRKFLPALAEEVQIHLVEALPIVLNMFEKKLSSYAQSHLENTSIKVHLRTAVAKVEEKQLLAKTKHEDGKITEETIPYGTLIWATGNKARPVITDLFKKIPEQNSSKRGLAVNDFLQVKGSNNIFAIGDNAFAGLPPTAQVAHQEAEYLAKNFDKMAQIPNFQKNLSSRKDKIDLLFEENNFKPFKYNDLGALAYLGSERAIATWRSGKRTFYTGGGLMTFYLWRILYLSMILSARSRLKVFFDWIKLAFFKRDFFKGL
On to B2, for which the Km amounted to 75.6 ± 12 µM, the “increase of Km value” value worked out at 3.3 fold and the Vmax came to 58.0 ± 1.5 µmol/min/mg.

B3: W63F: recombinant Ndi1 mutant W63F (protein, UniProt P32340 27-513, looked up, variant W63F)
Rotenone-insensitive …: STGVENSGAGPTSFKTMKVIDPQHSDKPNVLILGSGFGAISFLKHIDTKKYNVSIISPRSYFLFTPLLPSAPVGTVDEKSIIEPIVNFALKKKGNVTYYEAEATSINPDRNTVTIKSLSAVSQLYQPENHLGLHQAEPAEIKYDYLISAVGAEPNTFGIPGVTDYGHFLKEIPNSLEIRRTFAANLEKANLLPKGDPERRRLLSIVVVGGGPTGVEAAGELQDYVHQDLRKFLPALAEEVQIHLVEALPIVLNMFEKKLSSYAQSHLENTSIKVHLRTAVAKVEEKQLLAKTKHEDGKITEETIPYGTLIWATGNKARPVITDLFKKIPEQNSSKRGLAVNDFLQVKGSNNIFAIGDNAFAGLPPTAQVAHQEAEYLAKNFDKMAQIPNFQKNLSSRKDKIDLLFEENNFKPFKYNDLGALAYLGSERAIATIRSGKRTFYTGGGLMTFYLWRILYLSMILSARSRLKVFFDWIKLAFFKRDFFKGL
B3: the Michaelis-Menten constant (Km) came out at 53.1 ± 6.4 µM; the “Vmax, % of the wild-type activity” value is listed as 137%; the “increase of Km value” value is 2.3 fold; the Vmax stood at 1450 ± 27 µmol/min/mg.

B4: Q394G: recombinant Ndi1 mutant Q394G (protein, UniProt P32340 27-513, looked up, variant Q394G)
Rotenone-insensitive …: STGVENSGAGPTSFKTMKVIDPQHSDKPNVLILGSGWGAISFLKHIDTKKYNVSIISPRSYFLFTPLLPSAPVGTVDEKSIIEPIVNFALKKKGNVTYYEAEATSINPDRNTVTIKSLSAVSQLYQPENHLGLHQAEPAEIKYDYLISAVGAEPNTFGIPGVTDYGHFLKEIPNSLEIRRTFAANLEKANLLPKGDPERRRLLSIVVVGGGPTGVEAAGELQDYVHQDLRKFLPALAEEVQIHLVEALPIVLNMFEKKLSSYAQSHLENTSIKVHLRTAVAKVEEKQLLAKTKHEDGKITEETIPYGTLIWATGNKARPVITDLFKKIPEQNSSKRGLAVNDFLQVKGSNNIFAIGDNAFAGLPPTAGVAHQEAEYLAKNFDKMAQIPNFQKNLSSRKDKIDLLFEENNFKPFKYNDLGALAYLGSERAIATIRSGKRTFYTGGGLMTFYLWRILYLSMILSARSRLKVFFDWIKLAFFKRDFFKGL
Consider B4, for which the Km amounted to 30.8 ± 3.4 µM; the “Vmax, % of the wild-type activity” value worked out at 43%; the “increase of Km value” value is on record as 1.4 fold; the Vmax was determined as 452 ± 8.1 µmol/min/mg.

B5: A393G: recombinant Ndi1 mutant A393G (protein, UniProt P32340 27-513, looked up, variant A393G)
Rotenone-insensitive …: STGVENSGAGPTSFKTMKVIDPQHSDKPNVLILGSGWGAISFLKHIDTKKYNVSIISPRSYFLFTPLLPSAPVGTVDEKSIIEPIVNFALKKKGNVTYYEAEATSINPDRNTVTIKSLSAVSQLYQPENHLGLHQAEPAEIKYDYLISAVGAEPNTFGIPGVTDYGHFLKEIPNSLEIRRTFAANLEKANLLPKGDPERRRLLSIVVVGGGPTGVEAAGELQDYVHQDLRKFLPALAEEVQIHLVEALPIVLNMFEKKLSSYAQSHLENTSIKVHLRTAVAKVEEKQLLAKTKHEDGKITEETIPYGTLIWATGNKARPVITDLFKKIPEQNSSKRGLAVNDFLQVKGSNNIFAIGDNAFAGLPPTGQVAHQEAEYLAKNFDKMAQIPNFQKNLSSRKDKIDLLFEENNFKPFKYNDLGALAYLGSERAIATIRSGKRTFYTGGGLMTFYLWRILYLSMILSARSRLKVFFDWIKLAFFKRDFFKGL
Turning to B5, the Km amounted to 32.5 ± 1.9 µM; the “Vmax, % of the wild-type activity” value worked out at 83%; the “increase of Km value” value came out at 1.4 fold; the Vmax is 882 ± 7.6 µmol/min/mg.

B6: I459A: recombinant Ndi1 mutant I459A (protein, UniProt P32340 27-513, looked up, variant I459A)
Rotenone-insensitive …: STGVENSGAGPTSFKTMKVIDPQHSDKPNVLILGSGWGAISFLKHIDTKKYNVSIISPRSYFLFTPLLPSAPVGTVDEKSIIEPIVNFALKKKGNVTYYEAEATSINPDRNTVTIKSLSAVSQLYQPENHLGLHQAEPAEIKYDYLISAVGAEPNTFGIPGVTDYGHFLKEIPNSLEIRRTFAANLEKANLLPKGDPERRRLLSIVVVGGGPTGVEAAGELQDYVHQDLRKFLPALAEEVQIHLVEALPIVLNMFEKKLSSYAQSHLENTSIKVHLRTAVAKVEEKQLLAKTKHEDGKITEETIPYGTLIWATGNKARPVITDLFKKIPEQNSSKRGLAVNDFLQVKGSNNIFAIGDNAFAGLPPTAQVAHQEAEYLAKNFDKMAQIPNFQKNLSSRKDKIDLLFEENNFKPFKYNDLGALAYLGSERAIATARSGKRTFYTGGGLMTFYLWRILYLSMILSARSRLKVFFDWIKLAFFKRDFFKGL
As for B6, the Michaelis constant (Km) is 40.2 ± 4.1 µM, the “increase of Km value” value was 1.8 fold and the maximal velocity (Vmax) was 2.90 ± 0.0042 µmol/min/mg.
